Measurements: patent US20180327500A1 (SYMPHOGEN A S, published 2018)

Target: T1, His tagged human MET ECD (Sinobiological) (human, UniProt P08581 25-932)
T1 construct: Bought monovalent antigen; also called human MET antigen; not shown: His tag
Experiment: BLI (Octet QK384); antibody captured on anti-human Fc sensors, monovalent MET ECD in solution, 1:1 Langmuir fit

T1 sequence (P08581 25-932): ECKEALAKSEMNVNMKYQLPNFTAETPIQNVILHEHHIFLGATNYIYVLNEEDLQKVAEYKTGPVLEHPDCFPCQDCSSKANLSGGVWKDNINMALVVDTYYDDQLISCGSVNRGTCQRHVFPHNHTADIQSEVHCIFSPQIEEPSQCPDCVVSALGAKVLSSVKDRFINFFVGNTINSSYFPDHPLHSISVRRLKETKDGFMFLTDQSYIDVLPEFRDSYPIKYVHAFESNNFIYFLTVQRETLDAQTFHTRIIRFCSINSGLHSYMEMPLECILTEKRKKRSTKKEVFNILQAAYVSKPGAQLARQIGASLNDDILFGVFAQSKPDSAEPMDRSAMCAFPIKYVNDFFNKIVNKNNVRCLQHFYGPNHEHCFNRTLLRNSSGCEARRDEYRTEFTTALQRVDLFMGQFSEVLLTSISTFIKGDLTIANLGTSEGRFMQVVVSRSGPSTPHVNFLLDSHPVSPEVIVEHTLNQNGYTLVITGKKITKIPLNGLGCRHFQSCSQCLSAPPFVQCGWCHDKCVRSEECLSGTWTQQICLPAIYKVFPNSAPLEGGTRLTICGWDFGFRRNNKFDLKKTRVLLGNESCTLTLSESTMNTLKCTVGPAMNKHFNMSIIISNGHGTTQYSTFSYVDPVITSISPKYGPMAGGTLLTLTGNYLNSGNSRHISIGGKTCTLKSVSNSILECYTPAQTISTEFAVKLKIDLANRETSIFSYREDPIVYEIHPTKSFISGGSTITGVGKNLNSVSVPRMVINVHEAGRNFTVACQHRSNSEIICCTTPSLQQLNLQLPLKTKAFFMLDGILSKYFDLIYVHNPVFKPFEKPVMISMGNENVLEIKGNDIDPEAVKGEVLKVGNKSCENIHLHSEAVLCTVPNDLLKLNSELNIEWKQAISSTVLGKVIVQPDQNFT

| Binder | Kd | koff | kon |
| --- | --- | --- | --- |
| chimeric antibody 9338 (antibody, V domains shown) VH: QVQLQQPGAELAKPGASVRMSCKASGYTFTSYWMHWVKQRPGQGLEWIGYINPSSGHIENNQKFKDKATLTADKSSSTAYMQLSSLTFEDSAVYYCARGRFAYWGQGTLVTVSS VL: DIVMTQSPAIMSASPGEKVTLTCSASSSVSSGYLYWYQQKPGSSPKLWIYSTSNLASGVPARFSGSGSGTSYSLTVNSMEAEDAASYFCHQWSSYPFTFGSGTKLELK | 0.6 nM | 0.00011 s⁻¹ | 190000 M⁻¹ s⁻¹ |
| chimeric antibody 9006 (antibody, V domains shown) VH: QIHLGQSGPELKKPGETVKISCKASGYTFTNFRMNWVKQAPGKGLKWMGWINTYTGEPTYVDDLKGRFAFSLETSASTAYLQINNLKNEDMATYFCARKGIARAMDYWGQGTSVTVSS VL: NIVMTQSPSSLSVSAGEMVTMSCKSSQSLLDSGNQKNYLAWYQQKPGQPPQLLIFGASTRESGVPDRFTGSGSGTDFTLTVSSVQAEDLAVYYCQNDHSYPYTFGGGTKLEIK | 2.2 nM | 0.00012 s⁻¹ | 54000 M⁻¹ s⁻¹ |
